# Test results as given in US8937153B2, “Compositions, methods and uses” (Affibody AB, priority 2007, dated 2015).
# Key:
# [1] = Solubility in aqueous solvents (general statement); format: physicochemical
# From the text: For example, 30% organic solvent is needed to keep the conjugate in solution.
# [2] = target: T1, HSA (human serum albumin) (Homo sapiens, UniProt P02768); experiment: Biosensor (Biacore) analysis of ABD variants' binding to human serum albumin (Example 2); conditions: N-terminal His6-tagged proteins injected at 25 nM; HSA immobilized 360 RU; qualitative measure of relative affinities
# Procedure: (§1) ABDwt and the twelve ABD variants, all sub-cloned in pAY442 as described above, were expressed in E. coli BL21(DE3) as fusions to an N-terminal His6-tag and purified by IMAC. A colony of each ABD variant was used to inoculate 5 ml TSB medium supplemented with 50 μg/ml kanamycin. The cultures were grown over night at 37° C. The following day, 50 μl of each culture were inoculated separately to 100 ml TSB+YE medium supplemented with 50 μg/ml kanamycin in a 1 liter flask. The cultures were grown at 100 rpm at 37° C. to an OD600 of 0.7-1, after which IPTG was added to a final concentration of 0.5 mM and cells were incubated at room temperature over night at 100 rpm. Cultures were harvested by centrifugation at 8000 g for 5 minutes and pellets were stored in a freezer until protein preparation.
# (§2) The His6-tagged proteins were IMAC purified under denatured conditions using Ni-NTA Superflow columns and QIAsoft 4.1, protein/Ni-NTA Superflow 96 denaturing large scale 2 Vac4-24 samples, on a Biorobot 3000 (Qiagen). The buffer was exchanged to PBS using a dialysis cassette (Slide-A-Lyser, 3.5 kDa; Pierce cat. no. 66330) by dialyzing against 5 l PBS for 2 h followed by an additional dialysis over night. […]
# [3] = target: T1, HSA (human serum albumin); experiment: Biosensor analysis for binding kinetics to human serum albumin (Example 3); conditions: His6-tagged; HSA immobilized 450 RU; values estimated
# Procedure: ABD00003, ABD00053, ABD00239 and ABDwt were expressed in E. coli BL21(DE3) cells as fusions to an N-terminal His6-tag using constructs as described in Example 2, and purified by IMAC. A colony of each ABD variant was used to inoculate 10 ml TSB medium supplemented with 50 μg/ml kanamycin. The cultures were grown over night at 37° C. The following day, 500 μl of each culture were inoculated separately to 500 ml TSB+YE medium supplemented with 50 μg/ml kanamycin in a 5 liter flask. The cultures were grown at 100 rpm and 37° C. to an OD600 of 0.7-1, which was followed by addition of IPTG to a final concentration of 0.5 mM and incubated at room temperature over night. Cultures were harvested by centrifugation at 8000 g for 5 minutes and pellets were stored at −20° C. until protein preparation.
# The His6-tagged proteins were IMAC purified under denaturing conditions using His-Gravitrap™ kit (GE Healthcare). The pellets were re-suspended (vortexed) in 20 ml of the denaturation buffer B-7M (100 mM NaH2PO4, 10 mM Tris-Cl, 7 M urea, pH 8) and 8 μl benzonase was added.
# Biosensor analysis on a Biacore2000 instrument (Biacore) was performed with HSA (SIGMA, cat. no. A3782-5G) immobilized by amine coupling onto the carboxylated dextran layer on surfaces of a CM-5 chip (research grade; Biacore), according to the manufacturer's recommendations. […] One cell surface on the chip was activated and deactivated and used as reference cell during injections. The purified His6-ABD samples were diluted in HBS-EP (Biacore) to 4, 10, 40, 100 and 400 nM for ABDwt and to 0.2, 0.8, 2, 5 and 20 nM for the selected ABD variants. The samples were injected at a constant flow-rate of 25 μl/min for 10 min, followed by injection of HBS-EP for 3 hours. The surfaces were regenerated with two injections of 20 μl of 5 and 10 mM HCl.
# [4] = target: MSA (mouse serum albumin) (Mus musculus, UniProt P07724); experiment: Biosensor (Biacore) analysis of ABD variants' binding to mouse serum albumin; conditions: N-terminal His6-tagged proteins injected at 25 nM; MSA immobilized 350 RU; qualitative measure of relative affinities
# Procedure: as §1, §2
# MSA (mouse serum albumin), sequence (P07724 25-608): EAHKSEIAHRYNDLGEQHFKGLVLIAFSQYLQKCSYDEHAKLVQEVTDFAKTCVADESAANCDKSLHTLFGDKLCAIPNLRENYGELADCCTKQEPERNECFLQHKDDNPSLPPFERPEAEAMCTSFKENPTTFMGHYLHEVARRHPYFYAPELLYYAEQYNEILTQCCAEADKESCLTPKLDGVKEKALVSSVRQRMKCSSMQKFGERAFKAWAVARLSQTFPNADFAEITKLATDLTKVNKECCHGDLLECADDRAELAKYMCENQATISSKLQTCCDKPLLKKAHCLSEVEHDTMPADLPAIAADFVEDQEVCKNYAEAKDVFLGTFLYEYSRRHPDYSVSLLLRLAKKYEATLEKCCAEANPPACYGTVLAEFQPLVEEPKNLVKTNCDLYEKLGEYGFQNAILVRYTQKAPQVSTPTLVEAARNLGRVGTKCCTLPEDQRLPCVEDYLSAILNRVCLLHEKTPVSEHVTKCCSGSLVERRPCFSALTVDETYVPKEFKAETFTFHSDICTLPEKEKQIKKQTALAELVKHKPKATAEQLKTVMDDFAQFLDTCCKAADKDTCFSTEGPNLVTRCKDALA
Compound,solubility in aqueous solvents [1],Kd [2],Kd [3],ka to HSA [3],kd to HSA [3],Kd [4]
"COc1cccc2c1C(=O)c1c(O)c3c(c(O)c1C2=O)C[C@@](O)(C(=O)CO)CC3O[C@H]1CC(NC(=O)OCc2ccc(NC(=O)OCc3ccc(NC(=O)[C@H](CCCNC(N)=O)NC(=O)[C@@H](NC(=O)CCCCCN4C(=O)C=CC4=O)C(C)C)cc3)cc2)C(O)[C@@H](C)O1 (stereo partly drawn) [free linker, Maleimide-Spacelinker-Doxorubicin]",low solubility,,,,,
ABDwt,,1.5 nM,1.2 nM,550000 M/s,0.00065 s⁻¹,4.9 nM
